Conditions in all cases: tags: R&D Systems; chain copies: 2
Data set [1] addresses T1, NGF (nerve growth factor) (Homo sapiens, UniProt P01138 P01138:122-241). The data set is described as follows: cell_activity; neurite outgrowth inhibition; TF-1 IC50 6.924 nM.
Data set [2] deals with T1, NGF (nerve growth factor). The data set is described as follows: cell_activity; neurite; TF-1 0.979.
The target of data set [3] is T1, NGF (nerve growth factor). The data set is described as follows: cell_activity; neurite; TF-1 0.178.
In data set [4] the target is T1, NGF (nerve growth factor). The data set is described as follows: cell_activity; neurite; TF-1 0.018. The protocol: (§1) With the neurite length per cell obtained by the addition of NGF alone as inhibitory activity 0%, and that of the cell obtained by NGF free culture for 2 days as inhibitory activity 100%, the inhibitory activity of the aptamer was calculated from the neurite length per cell obtained by culturing with the addition of NGF and the aptamer in mixture.
(§2) Two NGF receptor (human TrkA and human p75) genes were introduced into TF-1 cells (ATCC Number: CRL-2003), which is a human erythroleukemic cell line, by using a retrovirus vector to give cells that highly express two receptors simultaneously and stably. The cells were suspended in an RPMI-1640 medium containing 20% fetal bovine serum, and seeded in a white 96 well flat-bottom plate at 1000 cells (50 μL) per well. […] With the amount of luminescence per well obtained by the addition of NGF alone and culture of the cells for 3 days as inhibitory activity 0%, and that of the well obtained by NGF free culture for 3 days as inhibitory activity 100%, the inhibitory activity of the aptamer was calculated from the amount of luminescence per well obtained by culturing with the addition of NGF and the aptamer in mixture.

The target of data set [5] is T1, NGF (nerve growth factor). The data set is described as follows: SPR; 145 mM NaCl, 5.4 mM KCl, 1.8 mM CaCl2, 0.8 mM MgCl2, 20 mM Tris pH 7.6; strong inhibition of NGF-receptor binding. Background: SPR reads the build-up and loss of mass on a sensor chip optically.
Data set [6] deals with T1, NGF (nerve growth factor). The data set is described as follows: cell_activity; neurite; TF-1 0.03.
In data set [7] the target is T1, NGF (nerve growth factor). The data set is described as follows: cell_activity; neurite; TF-1 0.097. The protocol:
as §1, §2

Data set [8] addresses T1, NGF (nerve growth factor). The data set is described as follows: cell_activity; neurite; TF-1 0.073.
The target of another data set is T2, NT-4 (neurotrophin-4) (Homo sapiens, UniProt P34130 P34130:81-210).
T2 sequence: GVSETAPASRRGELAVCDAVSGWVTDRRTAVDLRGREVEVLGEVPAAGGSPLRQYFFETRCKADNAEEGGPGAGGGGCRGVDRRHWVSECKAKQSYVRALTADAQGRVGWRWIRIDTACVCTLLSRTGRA
The data set is described as follows: cell_activity; TF-1.

The next data set has as its target T3, NT-3 (neurotrophin-3) (Homo sapiens, UniProt P20783 P20783:139-257).
T3 sequence: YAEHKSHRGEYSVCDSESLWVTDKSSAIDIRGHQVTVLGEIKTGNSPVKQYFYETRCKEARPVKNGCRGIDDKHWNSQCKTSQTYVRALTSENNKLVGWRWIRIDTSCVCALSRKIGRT
The data set is described as follows: cell_activity; TF-1.

Data set [9] has as its target T1, NGF (nerve growth factor). The data set is described as follows: cell_activity; neurite; TF-1 0.046.
Data set [10] concerns the target T1, NGF (nerve growth factor). The data set is described as follows: cell_activity; neurite; TF-1 0.035.
Data set [11] concerns the target T1, NGF (nerve growth factor). The data set is described as follows: cell_activity; neurite; TF-1 0.051.
Data set [12] concerns the target T1, NGF (nerve growth factor). The data set is described as follows: cell_activity; neurite; TF-1 0.025.
Data set [13] deals with T1, NGF (nerve growth factor). The data set is described as follows: cell_activity; neurite; TF-1 0.031. As for the experimental part:
as §1, §2

The target in data set [14] is T1, NGF (nerve growth factor). The data set is described as follows: cell_activity; neurite; TF-1 0.075.
In data set [15] the target is T1, NGF (nerve growth factor). The data set is described as follows: cell_activity; neurite; TF-1 0.030.
For data set [16], the target named is T1, NGF (nerve growth factor). The data set is described as follows: cell_activity; neurite; TF-1 0.028. The protocol: as §1, §2
Data set [17] has as its target T1, NGF (nerve growth factor). The data set is described as follows: cell_activity; neurite; TF-1 0.042.
Data set [18] concerns the target T1, NGF (nerve growth factor). The data set is described as follows: cell_activity; neurite; TF-1 0.027.
For data set [19], the target named is T1, NGF (nerve growth factor). The data set is described as follows: cell_activity; neurite; TF-1 0.093.
In data set [20] the target is T1, NGF (nerve growth factor). The data set is described as follows: cell_activity; neurite; TF-1 0.083.
The target of data set [21] is T1, NGF (nerve growth factor). The data set is described as follows: cell_activity; neurite; TF-1 0.033.
In data set [22] the target is T1, NGF (nerve growth factor). The data set is described as follows: cell_activity; neurite; TF-1 0.024.
The target of data set [23] is T1, NGF (nerve growth factor). The data set is described as follows: cell_activity; neurite; TF-1 0.036.
In data set [24] the target is T1, NGF (nerve growth factor). The data set is described as follows: cell_activity; neurite; TF-1 0.087.
Data set [25] concerns the target T1, NGF (nerve growth factor). The data set is described as follows: cell_activity; neurite; TF-1 0.071.
Data set [26] deals with T1, NGF (nerve growth factor). The data set is described as follows: cell_activity; neurite; TF-1 0.043.

T1 sequence (P01138 122-241, one chain of several): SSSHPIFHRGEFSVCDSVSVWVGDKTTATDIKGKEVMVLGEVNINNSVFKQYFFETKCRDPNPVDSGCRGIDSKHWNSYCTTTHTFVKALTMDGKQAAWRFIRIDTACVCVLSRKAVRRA

On to GGGUCCUGGUGAUAAGUUUCCGUCUUAUCACCUGUUACCC (ssRNA, 2'-F C and U; 2'-OH G; 2'-H (deoxy) A) [SEQ ID NO: 81], for which, in [1], the IC50 (commonly the concentration at which inhibition is half-maximal) is 0.765 nM. This lies in the sub-nanomolar range.

In [2], GGGUCCUGUUCAAGAGUUUCCGUCUCGUGAACUGUUACCC (ssRNA, 2'-F C/U, dA, 2'-OH G) [SEQ ID NO: 88] displayed an IC50 of 0.572 nM.

As to GGGUCCUGCUCAAGAGUUUCCGUCUCGUGGGCUGUUACCC (ssRNA, as 87(4) plus 2'-OMe A15,A37; no 5' idT) [SEQ ID NO: 87(5)], it took 0.078 nM to reach half-maximal inhibition in [3] (IC50). This lies in the picomolar range.

For GGGUCCUGGCCAAGAGUUUCCGUCUCGUGGUCUGUUACCC (ssRNA, 2'-OMe G (G8,G34 2'-OH), dA, 2'-F C/U; 5',3' idT) [SEQ ID NO: 78(1)], the IC50 in [4] was determined as 0.12 nM.

B1: SEQ ID NO: 1 (ssRNA)
RNA: GGGAGAACUUCGACCAGAAGUUGACGACCAACUCGUCUCUUAUGGAUUUACGUGAACCCGUAUGUGCGCAUACAUGGAUCCUC
modifications: 2'-F C and U; 2'-OH G; 2'-H (deoxy) A
In the case of B1, the binding result in data set [5] is “binds”.

In data set [6], GGGUCCUGGCUAAGAGUUUCCGUCUCGUAGUCUGUUACCC (ssRNA, 2'-OMe G (G8,G34 2'-OH), dA, 2'-F C/U; 5',3' idT) [SEQ ID NO: 80(1)] registered an IC50 of 0.271 nM.

GGGUCCUGGAUAAGAGUUUCCGUCUCGUAUCCUGUUACCC (ssRNA, as 82(25) except dU7) [SEQ ID NO: 82(37)] returned an IC50 in data set [7] of 0.098 nM.

For GGGUCCUGGAUAAGAGUUUCCGUCUCGUAUCCUGUUACCC (ssRNA, as 82(25) except dU25) [SEQ ID NO: 82(40)], in [8], the IC50 came to 0.239 nM.

Take GGGUCCUGGAUAAGAGUUUCCGUCUCGUAUCCUGUUACCC (ssRNA, as 82(1) except 2'-OMe U30) [SEQ ID NO: 82(11)]: the results for the IC50 (with NT-4 (neurotrophin-4); with NT-3 (neurotrophin-3); in data set [9]) were 3.42 nM, 38.1 nM and 0.253 nM, respectively.

Take GGGUCCUGGAUAAGAGUUUCCGUCUCGUAUCCUGUUACCC (ssRNA, as 82(1) except 2'-OMe C26) [SEQ ID NO: 82(9)]: the IC50 with NT-4 (neurotrophin-4) was less than 3 nM; in the data set with NT-3 (neurotrophin-3), 34.8 nM; in data set [10], 0.252 nM.

As for GGGUCCUGGAUAAGAGUUUCCGUCUCGUAUCCUGUUACCC (ssRNA, as 82(1) except 2'-OMe C6) [SEQ ID NO: 82(3)], the values for the IC50 (with NT-4 (neurotrophin-4); in the data set with NT-3 (neurotrophin-3); in data set [11]) were 9.36 nM, 42 nM and 0.255 nM, respectively.

As to GGGUCCUGGAUAAGAGUUUCCGUCUCGUAUCCUGUUACCC (ssRNA, as 82(1) except 2'-OMe C39) [SEQ ID NO: 82(17)], the IC50 is less than 3 nM in the data set with NT-4 (neurotrophin-4), less than 30 nM with NT-3 (neurotrophin-3) and 0.127 nM in [12].

As to GGGUCCUGGAUAAGAGUUUCCGUCUCGUAUCCUGUUACCC (ssRNA, as 82(1) except 2'-OMe U4,C6,U11,C21,U23,C26,U30,C32,U35,C38-40) [SEQ ID NO: 82(20)], the IC50 in the data set with NT-3 (neurotrophin-3) was less than 30 nM; in data set [13], 0.244 nM.

For the molecule GGGUCCUGGAUAAGAGUUUCCGUCUCGUAUCCUGUUACCC (ssRNA, as 82(1) except 2'-OMe C20) [SEQ ID NO: 82(5)], the 50% inhibitory concentration (IC50) in [14] is 0.269 nM; in the data set with NT-4 (neurotrophin-4), less than 3 nM; with NT-3 (neurotrophin-3) it was 51.2 nM.

With GGGUCCUGGAUAAGAGUUUCCGUCUCGUAUCCUGUUACCC (ssRNA, as 82(1) except 2'-OMe U23) [SEQ ID NO: 82(7)], the IC50 in data set [15] is 0.143 nM; in the data set with NT-4 (neurotrophin-4), 3.74 nM; with NT-3 (neurotrophin-3), less than 30 nM.

On to GGGUCCUGGAUAAGAGUUUCCGUCUCGUAUCCUGUUACCC (ssRNA, as 82(1) except 2'-OMe C40) [SEQ ID NO: 82(18)], for which the IC50 with NT-4 (neurotrophin-4) was less than 3 nM; with NT-3 (neurotrophin-3), 38.7 nM; in [16] it was 0.244 nM.

GGGUCCUGGAUAAGAGUUUCCGUCUCGUAUCCUGUUACCC (ssRNA, as 82(25) except dU36) [SEQ ID NO: 82(41)] had a 50% inhibitory concentration (IC50) in data set [17] of 0.084 nM.

Regarding GGGUCCUGGAUAAGAGUUUCCGUCUCGUAUCCUGUUACCC (ssRNA, as 82(1) except 2'-OMe C31) [SEQ ID NO: 82(12)], the values for the IC50 (with NT-4 (neurotrophin-4); with NT-3 (neurotrophin-3); in data set [18]) were less than 3 nM, 34.7 nM and 0.127 nM, respectively.

In the case of GGGUCCUGGAUAAGAGUUUCCGUCUCGUAUCCUGUUACCC (ssRNA, as 82(1) except dC5) [SEQ ID NO: 82(27)], half-maximal inhibition in [19] (IC50) was put at 0.25 nM.

For the molecule GGGUCCUGGAUAAGAGUUUCCGUCUCGUAUCCUGUUACCC (ssRNA, as 82(1) except 2'-OMe U4,C6,U11,C21,U23,C26,U28,U30,C32,U35,C38-40) [SEQ ID NO: 82(22)], the results for the IC50 (with NT-3 (neurotrophin-3); in data set [20]) were less than 30 nM and less than 0.1 nM, respectively.

For the molecule GGGUCCUGGAUAAGAGUUUCCGUCUCGUAUCCUGUUACCC (ssRNA, as 82(1) except 2'-OMe U28) [SEQ ID NO: 82(10)], the IC50 was 0.128 nM in data set [21], less than 3 nM with NT-4 (neurotrophin-4) and 35.3 nM in the data set with NT-3 (neurotrophin-3).

Take GGGUCCUGGAUAAGAGUUUCCGUCUCGUAUCCUGUUACCC (ssRNA, as 82(25) except 2'-OMe A10) [SEQ ID NO: 82(45)]: half-maximal inhibition in data set [22] (IC50) was put at 0.037 nM.

Take GGGUCCUGGAUAAGAGUUUCCGUCUCGUAUCCUGUUACCC (ssRNA, as 82(1) except 2'-OMe U11) [SEQ ID NO: 82(4)]: the figures for the IC50 (in [23]; with NT-4 (neurotrophin-4); in the data set with NT-3 (neurotrophin-3)) were 0.139 nM, 3.37 nM and 30.4 nM, respectively.

Turning to GGGUCCUGGAUAAGAGUUUCCGUCUCGUAUCCUGUUACCC (ssRNA, as 82(25) except 2'-OMe C20) [SEQ ID NO: 82(26)], the results for the IC50 (with NT-3 (neurotrophin-3); in [24]) were less than 30 nM and 0.13 nM, respectively.

On to GGGUCCUGGAUAAGAGUUUCCGUCUCGUAUCCUGUUACCC (ssRNA, as 82(1) except 2'-OMe U25) [SEQ ID NO: 82(8)], for which the IC50 in [25] is 0.284 nM.

Turning to GGGUCCUGGAUAAGAGUUUCCGUCUCGUAUCCUGUUACCC (ssRNA, as 82(1) except 2'-OMe U35) [SEQ ID NO: 82(15)], the IC50 is 8.35 nM with NT-4 (neurotrophin-4), less than 30 nM in the data set with NT-3 (neurotrophin-3) and 0.127 nM in data set [26].

(Values after patent US20140235701, “NGF APTAMER AND APPLICATION THEREOF” (RIBOMIC INC., published 2014).)
